Results on two molecules are retold here after US20180339041A1 (Kyowa Kirin, published 2018).

In experiment [1] the target is T1, C-terminally FLAG-tagged human Gas6 recombinant protein (hGas6-F) (human, UniProt Q14393 31-678, gamma-carboxylated glutamic acid residues in the Gla domain (producer cells co-express rat VKOR and human GGCX); positions not given).
T1 construct: also called human Gas6-F; human Gas6 protein
T1 sequence: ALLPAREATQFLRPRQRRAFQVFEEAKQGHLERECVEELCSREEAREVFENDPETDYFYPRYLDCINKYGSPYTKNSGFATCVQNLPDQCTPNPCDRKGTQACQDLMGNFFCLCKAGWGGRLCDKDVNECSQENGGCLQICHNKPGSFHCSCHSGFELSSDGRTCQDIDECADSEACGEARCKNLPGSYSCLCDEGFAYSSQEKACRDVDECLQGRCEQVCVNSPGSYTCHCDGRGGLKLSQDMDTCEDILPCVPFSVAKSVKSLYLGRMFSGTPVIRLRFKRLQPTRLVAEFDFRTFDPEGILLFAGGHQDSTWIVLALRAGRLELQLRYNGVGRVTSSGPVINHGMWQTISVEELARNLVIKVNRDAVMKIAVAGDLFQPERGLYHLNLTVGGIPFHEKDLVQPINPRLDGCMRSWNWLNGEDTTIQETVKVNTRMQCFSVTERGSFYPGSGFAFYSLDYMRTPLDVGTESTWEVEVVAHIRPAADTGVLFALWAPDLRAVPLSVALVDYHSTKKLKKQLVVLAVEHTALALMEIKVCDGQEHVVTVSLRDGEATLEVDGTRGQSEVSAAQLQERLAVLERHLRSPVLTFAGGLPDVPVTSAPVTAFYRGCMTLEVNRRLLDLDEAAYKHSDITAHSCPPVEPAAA
As to the kind of experiment: competitive ELISA, hAxl-hFc immobilised, 50 ng/mL hGas6-F. For orientation: An ELISA detects its analyte on a solid surface through an enzyme-linked reagent.

Experiment [2] has as its target T1, C-terminally FLAG-tagged human Gas6 …. Kind of experiment: ELISA, Gas6-F captured by anti-FLAG, biotinylated antibody. The procedure:
After removal of the immobilization solution, 1% BSA-PBS (manufactured by Nacalai Tesque, Inc.) was added thereto at 300 μL/well, and the plate was left standing at room temperature for 1 hour for blocking and washed five times with Tween 20-PBS (manufactured by Wako Pure Chemical Industries Ltd.).
(§1) Each antibody solution was dispensed thereto at 50 μL/well, and the plate was left standing at room temperature for 1 hour. This plate was washed five times with Tween 20-PBS. Then, Streptavidin HRP Conjugate (manufactured by R&D Systems, Inc.) diluted 200-fold with 1% BSA-PBS was dispensed thereto at 50 μL/well, and the plate was left standing at room temperature for 1 hour. This plate was washed five times with Tween 20-PBS, and TMB (manufactured by Sigma-Aldrich Co. LLC) was added thereto at 50 μL/well and reacted. At an appropriate point in time, the reaction was terminated by the addition of 1 N hydrochloric acid (manufactured by Wako Pure Chemical Industries Ltd.) at 50 μL/well. The absorbance at a sample wavelength of 450 nm and a reference wavelength of 570 nm (450 nm-570 nm) was measured using a plate reader.

Experiment [3] addresses T2, C-terminally FLAG-tagged rat Gas6 recombinant protein (rGas6-F) (rat, UniProt Q63772 28-674, limits assumed, gamma-carboxylated glutamic acid residues in the Gla domain (producer cells co-express rat VKOR and human GGCX); positions not given).
T2 construct: also called rat Gas6-F
T2 sequence (looked up): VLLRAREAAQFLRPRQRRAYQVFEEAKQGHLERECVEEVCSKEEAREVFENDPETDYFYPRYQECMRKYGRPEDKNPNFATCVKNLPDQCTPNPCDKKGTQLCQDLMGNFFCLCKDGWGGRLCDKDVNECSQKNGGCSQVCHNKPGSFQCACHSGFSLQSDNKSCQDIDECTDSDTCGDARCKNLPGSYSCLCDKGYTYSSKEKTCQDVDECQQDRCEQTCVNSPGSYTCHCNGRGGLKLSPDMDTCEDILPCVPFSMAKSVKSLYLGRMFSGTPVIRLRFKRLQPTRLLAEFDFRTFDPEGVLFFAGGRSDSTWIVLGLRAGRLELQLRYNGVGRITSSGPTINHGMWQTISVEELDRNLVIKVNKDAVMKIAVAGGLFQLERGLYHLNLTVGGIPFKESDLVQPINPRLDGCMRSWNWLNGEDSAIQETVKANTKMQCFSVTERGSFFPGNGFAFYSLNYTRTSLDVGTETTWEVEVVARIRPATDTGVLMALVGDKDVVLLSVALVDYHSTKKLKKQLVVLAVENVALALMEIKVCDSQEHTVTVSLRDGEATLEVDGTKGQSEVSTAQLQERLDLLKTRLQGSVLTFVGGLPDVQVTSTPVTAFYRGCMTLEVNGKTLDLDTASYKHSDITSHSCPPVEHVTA
As to the kind of experiment: ELISA: rGas6-F (1 µg/mL) captured on coated anti-FLAG M2 antibody; biotinylated test antibody; streptavidin-HRP/TMB; absorbance 450-570 nm, N=2 (Example 6) [C]. The procedure:
First, 2 μg/mL anti-FLAG antibody [Monoclonal ANTI-FLAG M2 antibody produced in mouse (manufactured by Sigma-Aldrich Co. LLC) diluted with PBS (manufactured by Nacalai Tesque, Inc.)] was dispensed at 50 μL/well to a 96-well plate for ELISA (manufactured by Nalge Nunc International), and the plate was left standing overnight at 4° C. for adsorption. After removal of the immobilization solution, 1% BSA-PBS (manufactured by Nacalai Tesque, Inc.) was added thereto at 300 μL/well, and the plate was left standing at room temperature for 1 hour for blocking and washed five times with Tween 20-PBS (manufactured by Wako Pure Chemical Industries Ltd.).
as §1, with “At an appropriate point in time, the reaction was terminated by the addition of 1 N hydrochloric acid (manufactured by Wako Pure Chemical Industries Ltd.) at 50 μL/well.” left out

B1: anti-human Gas6 mouse monoclonal antibody KM5321 (KM5321-mKG1 antibody) (antibody, V domains shown)
VH: QIQLVQSGPELKKPGETVKISCRASGYTFTNYGMNWVKQAPGKGLKWMGWINTNTGEPTYTEEFKGRFAFSLETSATTAYLQINDLKNEDTATYFCARDEGWFVYWGQGTLITVSA
VL: ETTVTQSPASLSVATGEKVTIRCITSTDIDDDMNWYQQKPGEPPKLLISEGNTLRPGVPSRFSSSGYGTDFVFTIENTLSEDVADYYCLQTDSVPLTFGAGTKLELK
notes: Hybridoma-derived mouse IgG1, kappa; also called KM5321 antibody
A word on the EC50 (read off the curve): it is the concentration giving half of the maximal effect. In the case of B1, in experiment [1], the “antibody:Gas6 molar concentration ratio at complete inhibition” value is 0.5 antibody:Gas6 molar ratio. In addition, in experiment [2], the “antibody concentration at which binding activity was detected” value came out at 0.0003 µg/mL. Besides, the “EC50 (read off the curve)” value in experiment [3] was roughly 4 ng/mL.

B2: anti-human Gas6 mouse monoclonal antibody KM5320 (KM5320-mKG1 antibody) (antibody, V domains shown)
VH: QIQLVQSGPELKKPGETVKISCKASGYTFTNYGMNWVKQAPGKGLKWMGWINTETGEPTYSDDFKGRFAFSLETSATTAYLQINNLRNEDMATYFCAREDGYYGTLDYWGQGTSVTVSS
VL: SIVMTQTPKFLLVSAGDRVTITCKASQSVSNDVAWYQQKPGQSPKVLIYYASNRYTGVPDRFTGSGYGTDFTFTISTVQAEDLAVYFCQQDYSSPWTFGGGTKLEIK
notes: Hybridoma-derived mouse IgG1, kappa; also called KM5320 antibody
For B2, the “antibody:Gas6 molar concentration ratio at complete inhibition” value in experiment [1] was 2 antibody:Gas6 molar ratio. In addition, the “antibody concentration at which binding activity was detected” value in experiment [2] was determined as 0.0003 µg/mL. The “EC50 (read off the curve)” value in experiment [3] was roughly 5 ng/mL.
